Results taken from the RNAGym collection of RNA variant scans (doi:10.1073/pnas.2313332121).
This sample holds only a part of the variants without activity.

B1: TPR 5TU (parent)
chain: GGAUCUUCUCGAUCUAACAAAAAAGACAAAUCUGCCACAAAGCUUGAGAGCAUCUUCGGAUGCAGAGGCGGCAGCCUUCGGUGGCGCGAUAGCGCCAACGUUCUCAACUAUGACACGCAAAACGCGUGCUCCGUUGAAUGGAGUUUAUCAUG

Variants of: B1
Test: polymerase ribozyme fitness, log enrichment relative to wild type (log ratio); higher = more active; in vitro selection for triplet polymerase activity
In short: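 A single round of triplicate in vitro selection, including frozen incubation at −7 °C, was applied to PCR-built, transcribed mutant libraries of each subunit of a heterodimeric triplet polymerase ribozyme. Illumina sequencing of input and output libraries retained genotypes with ≥10 input reads and ≥1 read per output. Fitness is the base-2 logarithm of genotype enrichment divided by wild-type enrichment, from inverse-variance-weighted replicate averages.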

Row | Variant | polymerase ribozyme fitness (log ratio)
1 | GGAUGUUCUCGAUCUAACAAAAAAGACAAAUCUGCCCCAAAGCUUGAGAGCAUCUUCGGAUGCAGAGGCGGCAGCCUUCGAUGGCGCGAUAGCGCCAACGUUCUCAACUAUGACACGCAAAACGCGUGCUCCGUUGAAUGGAGUUUAUCAUG [C5G A37C G81A] | -1.37
2 | GGAUGUUCUCGAUCUAACAAAAAAGACAUAUCUGCCACAAAGCUUGAGAGCAUCUUCGGAUGCUGAGGCGGCAGCCUUCGGUGGCUCGAUAGCGCCAACGUUCUCAACUAUGACACGCAAAACGCGUGCUCCGUUGAAUGGAGUUUAUCGUG [C5G A29U A64U G86U A150G] | ≤ -4.2
3 | GGAUGUUCUCGAUCUAACAAAAAAGACAAAUCUGCCUCAUAGCUUGAGAGCAUCUUCGGAUGCAGAGGCGGCAGCCUUCGGUGGCGCGAUAGCGACAACGUUCUCAACUAUGACACGCAAAACGCGUGCUCCGUUGAAAGGAGUUUAUCAUG [C5G A37U A40U C95A U139A] | ≤ -4.2
4 | GGAUGUUCUCGAUCUAACAAAAAAGACGACUCUGCUACAAAGCUUGUGAGCAUCUUUGGAUGCAGAGGCGGCAGCCUUCGGUGGAGCGAUUGCGCCAACGUUCUCAACUAUGACACGUAGAACGGGUGCUCCGUUGAAUGGGGUUUAUCAUG [C5G A28G A30C C36U A47U C57U C85A A91U C118U A120G C125G A142G] | ≤ -4.2
5 | GGAUGUUCUCGAUCUAACAAAAAAGACAAAUCUGCCACAAAGCUUGAGUGCAUCUUUGGAUGCAGAGGCGGCAGCCUUCGGUGGCGCGAUAGGGCCAACGUUGUCAACUAUGACACGCAAAACGCGUGCUCCGUUGAAUGGAGCUUAUCAUG [C5G A49U C57U C93G C103G U144C] | ≤ -4.2
6 | GGAUGUUCUCGAUCUAACAAAAAAGACGAAUCUGCCACAAAGCUUGACAGCAUCUUCGGAUGCAGAGGCGGCAGCCUUCGGUCGCGCGAUAGCGCCAACGUUCGCAACUAUGACACGCAAAACGCGUGCUCCUUUGAAUGGAGUUUAUCAUG [C5G A28G G48C G83C U104G G133U] | ≤ -4.2
7 | GGAUGUUCUCGAUCUAACAAAAAAGACAAAUCUGCCACAAAGCUUGAGAGCGUCUUCGGAUGCAGAGGCGGCAGCCUUCGGUCGCGCGAUAGUGCCAACGUUCUCAACUAUGACACGCAAAACGCGUGCUCCGUUGAAUGGAGUUUAUCAUG [C5G A52G G83C C93U] | -3.55
8 | GGAUGUUCUCGAUCUAGCAAAAAAGACAAAUCUGCCAAAAAGCUUGCGAGCAUCUUCGGCUGCAGAGGCGGCAGCCUUCGGCGGCGCGAUAGCGGCAACGUUCUCAACUAUGACACGCAAAAUGCGUGCUCCGUUGAAUGGAAUUUGUCAUG [C5G A17G C38A A47C A60C U82C C95G C123U G143A A147G] | ≤ -4.2
9 | GGAUGUUCUCGAUCUAACAAAAAAGACAAAUCUGCCACAAUGCUUGAGAGCAUCUUCGCAUGCAGAGGCGGCAGCCUUCGGUGACGCGAUAGCGCCAACGUUCUCAACUAUGACACGCAAAACGCGUGCUCCGUUGAAUGGAGUUUAUCAUG [C5G A41U G59C G84A] | -2.99
10 | GGAUGUUCUCGAUCUAACAGAAAAGACAAAUCUGCCACAAAGCUUGAGAGUAUCUUCGGAUGCAGAGGCGGCAGCCUUCGGUGGCGCGAUAGCGCCAACGUUCUCGACUAUGACACGCAAAACGCGUGCUCCGUUGAAUGGAGUUUAUCAUG [C5G A20G C51U A106G] | -1.64
11 | GGAUGUUCUCGAUCUAACAAAAGAGACAAAUCUGCCACAAAGCUUGAGACCCUCUUCGGAUGCAGAGGGGGCAGCCUUCGGUGGCGCGAUAGCGCCAACGUUCUCAACUAUGACACGCGAAACGCGUGCUCCGUUGAAUGGAGUUUAUCAUG [C5G A23G G50C A52C C69G A119G] | ≤ -4.2
12 | GGAUGUUCUCGAUCUAACGAAAAAGACACAUCUGCCACCAAGCUUGAGAGCAUCUUCGGAUGCAGAGGCGGCAGCCUUCGGUGGCGCGAUAGCGCCAACGUUCUCAACUAUGACACGCAAAACGCGUGCUCCGUUGAAUGGAGUCUAUCAUG [C5G A19G A29C A39C U145C] | ≤ -4.2
13 | GGAUGUUCUCGAUCUAACAAAAAAGACAAAUCUGCCACUAAGCUUGAGAGCAUCUUCGUAUGCAGAGACGGCAGCCUUCGGUGGCGCGAUAGCGCCAGCGUUCUCAACUAUGACGCGCAAAACGCGUGCUCCGUUGGAUGGAUUUUAUCAUG [C5G A39U G59U G68A A98G A115G A137G G143U] | ≤ -4.2
14 | GGAUGUUCUCGAUCUAACAAAAAGGGCAAAUCUGCCACAAAGCUUGAGAGCAUCUUCGGAUGCAGAGGCGGCAGCCUUCGGUGGCGCGAUAGCGCCAACGUUCUCAACUAUGGCAGGCAAAACGCGUGCUCCGUUGAAUGGAGUUUAUCAUG [C5G A24G A26G A113G C116G] | ≤ -4.2
15 | GGAUGUUCUCGAUCUAACAAAAAAGACAAAUCUGCCUCAAAGCUUGAGAGCAUCUUCGGAUGCAGAGGCGGCAGCCUUCGGUGGCGCGAUAGCGCCAACGUUCUCAACUAUGACACGCAAAACGCGUGCUCCGUUGAAUGUAGUUUAUCAUG [C5G A37U G141U] | -1.94
16 | GGAUGUUCUCGAUCUAACAAAAAAGACAAAUCUGCCACAAAGCUUGAGAGCAUCUUCGGAUGCAGAGGCGGCUGCCUUCGGUGGCGCGAUAGCGCCAACGUUCUCAACUAUGACACGCAAAACACGUGCUCCGUUGAAUGGAGUUUAUCAUG [C5G A73U G124A] | -1.49
17 | GGAUGUUCUCGAUCUAACAAUAAAGACAAAUCUGCCACAAAGCUUGAGGGCAUCUUCGGAUGCAGAGGCGGCAGCCUUCGGUGGCGCGAUAGAGCCAACGUUCUCAACUAUGACACGCAAAACGCGUGCUCCGUUGUAUGGAGUUUAUCAUG [C5G A21U A49G C93A A137U] | ≤ -4.2
18 | GGAUGUUCUCGAUCUAACAGAAAAGAAAAAUCUGCCACAAAGCUUGAGAGCAUCUUCGGAUGCAGAGGCGGUAGCCUUCGGUGGCGCGAUAGCGCCAACGUUCUCAACUAUGACACGCAUAACGCGUGCUCCGUUGAAUGGAGUUUAUCAUG [C5G A20G C27A C72U A120U] | ≤ -4.2
19 | GGAUGUUCUCGAUCUGACAAAAAAGACAAAUCUGUCACAAAGCUUGAGAGCAUCUUCGGAUGAAGAGGCGGCAGCCUUCGGUGGUGCGAUAGCGCCAACGUUCUCAACUAUGACACGCAAAACGCGUGCUCCGUUGAAUGGAGUUUAUCAUG [C5G A16G C35U C63A C85U] | -1.82
